# Test results published in US20250157661.
# Test system: Indicator molecule containing the cleavable sequence GPQGIFGQ with a terminal biotin group connected via a polyethylene glycol spacer/linker (intact, Examples 1-6)
# Chain of Active MMP-9 (Alere San Diego) (chain, as listed by the source): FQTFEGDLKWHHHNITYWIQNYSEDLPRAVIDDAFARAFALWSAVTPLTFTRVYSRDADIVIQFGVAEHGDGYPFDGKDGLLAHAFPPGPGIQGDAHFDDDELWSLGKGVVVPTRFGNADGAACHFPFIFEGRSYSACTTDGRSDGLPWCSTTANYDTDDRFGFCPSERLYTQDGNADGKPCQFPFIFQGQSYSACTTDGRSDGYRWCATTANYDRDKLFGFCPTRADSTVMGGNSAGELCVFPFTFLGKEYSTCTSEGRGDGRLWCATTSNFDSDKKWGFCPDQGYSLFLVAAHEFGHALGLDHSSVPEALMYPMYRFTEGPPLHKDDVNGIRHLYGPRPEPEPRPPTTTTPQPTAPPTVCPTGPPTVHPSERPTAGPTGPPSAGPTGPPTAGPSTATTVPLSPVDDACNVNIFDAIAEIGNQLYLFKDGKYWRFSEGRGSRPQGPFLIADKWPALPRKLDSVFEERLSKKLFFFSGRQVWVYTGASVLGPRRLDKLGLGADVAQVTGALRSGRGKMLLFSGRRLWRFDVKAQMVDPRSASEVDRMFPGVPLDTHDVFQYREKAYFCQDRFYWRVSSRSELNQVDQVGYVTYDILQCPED
# Chain of MMP2 (Enzo) (chain, as listed by the source): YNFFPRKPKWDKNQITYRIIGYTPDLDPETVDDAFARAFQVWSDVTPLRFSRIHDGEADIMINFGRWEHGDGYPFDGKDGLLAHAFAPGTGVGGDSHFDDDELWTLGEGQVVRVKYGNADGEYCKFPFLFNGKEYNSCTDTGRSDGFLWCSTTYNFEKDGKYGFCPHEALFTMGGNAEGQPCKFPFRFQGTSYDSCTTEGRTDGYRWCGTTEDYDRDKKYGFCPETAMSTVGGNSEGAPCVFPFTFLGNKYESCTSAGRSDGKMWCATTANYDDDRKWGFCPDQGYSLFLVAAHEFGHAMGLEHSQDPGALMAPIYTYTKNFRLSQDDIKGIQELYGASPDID
# Chain of MMP3 (Enzo) (chain, as listed by the source): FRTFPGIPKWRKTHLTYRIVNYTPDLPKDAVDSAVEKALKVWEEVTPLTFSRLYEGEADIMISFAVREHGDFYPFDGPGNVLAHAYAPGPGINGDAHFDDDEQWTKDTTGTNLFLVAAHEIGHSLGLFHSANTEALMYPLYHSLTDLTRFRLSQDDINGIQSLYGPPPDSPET
# Chain of MMP10 (Enzo) (chain, as listed by the source): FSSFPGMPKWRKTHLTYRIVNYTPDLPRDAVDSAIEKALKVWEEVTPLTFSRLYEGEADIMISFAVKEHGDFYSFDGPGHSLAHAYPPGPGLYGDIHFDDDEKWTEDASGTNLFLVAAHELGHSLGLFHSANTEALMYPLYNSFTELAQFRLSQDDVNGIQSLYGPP
# Chain of MMP9 (Enzo) (chain, as listed by the source): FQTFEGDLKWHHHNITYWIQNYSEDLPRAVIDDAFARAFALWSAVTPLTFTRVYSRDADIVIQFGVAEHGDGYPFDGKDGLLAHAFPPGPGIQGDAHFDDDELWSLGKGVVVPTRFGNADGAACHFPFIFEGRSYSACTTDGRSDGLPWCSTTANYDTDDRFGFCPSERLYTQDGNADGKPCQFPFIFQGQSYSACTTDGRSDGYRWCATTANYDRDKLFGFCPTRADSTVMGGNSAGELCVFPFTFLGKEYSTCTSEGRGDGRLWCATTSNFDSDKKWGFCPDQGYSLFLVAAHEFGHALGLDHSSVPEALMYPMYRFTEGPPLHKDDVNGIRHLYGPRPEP
# Chain of MMP8 (Enzo) (chain, as listed by the source): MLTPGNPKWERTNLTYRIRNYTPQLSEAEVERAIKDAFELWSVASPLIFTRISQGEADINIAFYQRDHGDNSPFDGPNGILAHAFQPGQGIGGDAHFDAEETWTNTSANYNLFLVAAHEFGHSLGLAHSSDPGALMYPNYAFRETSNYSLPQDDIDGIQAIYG
substance,measurement,value
Active MMP-9 (Alere San Diego),"OD405 (ELISA, streptavidin plate, CF1522-AP) at 0.39 ng/ml MMP9",0.14 OD405
same,"OD405 (ELISA, streptavidin plate, CF1522-AP) at 0.78 ng/ml MMP9",0.14 OD405
same,"OD405 (ELISA, streptavidin plate, CF1522-AP) at 1.56 ng/ml MMP9",0.14 OD405
same,"OD405 (ELISA, streptavidin plate, CF1522-AP) at 3.13 ng/ml MMP9",0.13 OD405
same,"OD405 (ELISA, streptavidin plate, CF1522-AP) at 6.25 ng/ml MMP9",0.17 OD405
same,"OD405 (ELISA, streptavidin plate, CF1522-AP) at 12.50 ng/ml MMP9",0.18 OD405
same,"OD405 (ELISA, streptavidin plate, CF1522-AP) at 25.00 ng/ml MMP9",0.27 OD405
same,"OD405 (ELISA, streptavidin plate, CF1522-AP) at 50.00 ng/ml MMP9",0.5 OD405
same,"reader value (lateral flow, CF1522-gold at the polystreptavidin test line) at 0.9765625 ng/ml MMP9",338 reader units
same,"reader value (lateral flow, CF1522-gold at the polystreptavidin test line) at 1.953125 ng/ml MMP9",343 reader units
same,"reader value (lateral flow, CF1522-gold at the polystreptavidin test line) at 3.90625 ng/ml MMP9",413 reader units
same,"reader value (lateral flow, CF1522-gold at the polystreptavidin test line) at 7.8125 ng/ml MMP9",524 reader units
same,"reader value (lateral flow, CF1522-gold at the polystreptavidin test line) at 15.625 ng/ml MMP9",882 reader units
same,"reader value (lateral flow, CF1522-gold at the polystreptavidin test line) at 31.25 ng/ml MMP9",2030 reader units
same,"reader value (lateral flow, CF1522-gold at the polystreptavidin test line) at 62.5 ng/ml MMP9",3830 reader units
same,"reader value (lateral flow, CF1522-gold at the polystreptavidin test line) at 125 ng/ml MMP9",5580 reader units
same,"reader value (lateral flow, CF1522-gold at the polystreptavidin test line) at 250 ng/ml MMP9",6220 reader units
same,"reader value (lateral flow, CF1522-gold at the polystreptavidin test line) at 500 ng/ml MMP9",6730 reader units
same,"reader value (lateral flow, CF1522-gold at the polystreptavidin test line) at 1000 ng/ml MMP9",6770 reader units
MMP2 (Enzo),"Reader value (lateral flow, CF1522-gold) with MMP at 0.5 ug/ml",1610 reader units
MMP3 (Enzo),"Reader value (lateral flow, CF1522-gold) with MMP at 0.5 ug/ml",336 reader units
MMP8 (Enzo),"Reader value (lateral flow, CF1522-gold) with MMP at 0.5 ug/ml",1140 reader units
MMP9 (Enzo),"Reader value (lateral flow, CF1522-gold) with MMP at 0.5 ug/ml",3840 reader units
MMP10 (Enzo),"Reader value (lateral flow, CF1522-gold) with MMP at 0.5 ug/ml",444 reader units
